B1: Armadillo segment polarity protein (Drosophila melanogaster (Fruit fly)), P18824 (parent)
chain: MSYMPAQNRTMSHNNQYNPPDLPPMVSAKEQTLMWQQNSYLGDSGIHSGAVTQVPSLSGKEDEEMEGDPLMFDLDTGFPQNFTQDQVDDMNQQLSQTRSQRVRAAMFPETLEEGIEIPSTQFDPQQPTAVQRLSEPSQMLKHAVVNLINYQDDAELATRAIPELIKLLNDEDQVVVSQAAMMVHQLSKKEASRHAIMNSPQMVAALVRAISNSNDLESTKAAVGTLHNLSHHRQGLLAIFKSGGIPALVKLLSSPVESVLFYAITTLHNLLLHQDGSKMAVRLAGGLQKMVTLLQRNNVKFLAIVTDCLQILAYGNQESKLIILASGGPNELVRIMRSYDYEKLLWTTSRVLKVLSVCSSNKPAIVDAGGMQALAMHLGNMSPRLVQNCLWTLRNLSDAATKVEGLEALLQSLVQVLGSTDVNVVTCAAGILSNLTCNNQRNKATVCQVGGVDALVRTIINAGDREEITEPAVCALRHLTSRHVDSELAQNAVRLNYGLSVIVKLLHPPSRWPLIKAVIGLIRNLALCPANHAPLREHGAIHHLVRLLMRAFQDTERQRSSIATTGSQQPSAYADGVRMEEIVEGTVGALHILARESHNRALIRQQSVIPIFVRLLFNEIENIQRVAAGVLCELAADKEGAEIIEQEGATGPLTDLLHSRNEGVATYAAAVLFRMSEDKPQDYKKRLSIELTNSLLREDNNIWANADLGMGPDLQDMLGPEEAYEGLYGQGPPSVHSSHGGRAFHQQGYDTLPIDSMQGLEISSPVGGGGAGGAPGNGGAVGGASGGGGNIGAIPPSGAPTSPYSMDMDVGEIDAGALNFDLDAMPTPPNDNNNLAAWYDTDC
partner: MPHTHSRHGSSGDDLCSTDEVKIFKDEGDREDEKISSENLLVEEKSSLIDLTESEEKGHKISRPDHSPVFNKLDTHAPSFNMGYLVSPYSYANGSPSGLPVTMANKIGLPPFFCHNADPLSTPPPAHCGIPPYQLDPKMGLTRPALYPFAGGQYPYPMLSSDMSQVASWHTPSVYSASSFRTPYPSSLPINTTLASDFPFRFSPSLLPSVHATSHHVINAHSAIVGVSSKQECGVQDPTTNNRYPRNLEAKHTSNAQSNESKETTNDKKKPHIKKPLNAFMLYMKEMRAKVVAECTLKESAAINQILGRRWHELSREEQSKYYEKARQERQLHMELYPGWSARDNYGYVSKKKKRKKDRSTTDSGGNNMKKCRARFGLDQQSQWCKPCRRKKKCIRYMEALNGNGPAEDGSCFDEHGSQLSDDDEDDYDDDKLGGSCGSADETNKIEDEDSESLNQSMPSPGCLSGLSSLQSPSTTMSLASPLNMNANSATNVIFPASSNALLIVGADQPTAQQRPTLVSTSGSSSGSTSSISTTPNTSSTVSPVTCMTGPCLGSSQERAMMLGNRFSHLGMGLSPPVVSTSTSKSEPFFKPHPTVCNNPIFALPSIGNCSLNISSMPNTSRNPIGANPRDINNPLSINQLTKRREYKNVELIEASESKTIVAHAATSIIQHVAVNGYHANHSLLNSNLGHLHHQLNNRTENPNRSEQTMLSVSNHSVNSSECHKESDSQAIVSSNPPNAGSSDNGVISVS
B2: Armadillo segment polarity protein (Drosophila melanogaster (Fruit fly)), P18824 (parent)
chain: B1 chain
partner: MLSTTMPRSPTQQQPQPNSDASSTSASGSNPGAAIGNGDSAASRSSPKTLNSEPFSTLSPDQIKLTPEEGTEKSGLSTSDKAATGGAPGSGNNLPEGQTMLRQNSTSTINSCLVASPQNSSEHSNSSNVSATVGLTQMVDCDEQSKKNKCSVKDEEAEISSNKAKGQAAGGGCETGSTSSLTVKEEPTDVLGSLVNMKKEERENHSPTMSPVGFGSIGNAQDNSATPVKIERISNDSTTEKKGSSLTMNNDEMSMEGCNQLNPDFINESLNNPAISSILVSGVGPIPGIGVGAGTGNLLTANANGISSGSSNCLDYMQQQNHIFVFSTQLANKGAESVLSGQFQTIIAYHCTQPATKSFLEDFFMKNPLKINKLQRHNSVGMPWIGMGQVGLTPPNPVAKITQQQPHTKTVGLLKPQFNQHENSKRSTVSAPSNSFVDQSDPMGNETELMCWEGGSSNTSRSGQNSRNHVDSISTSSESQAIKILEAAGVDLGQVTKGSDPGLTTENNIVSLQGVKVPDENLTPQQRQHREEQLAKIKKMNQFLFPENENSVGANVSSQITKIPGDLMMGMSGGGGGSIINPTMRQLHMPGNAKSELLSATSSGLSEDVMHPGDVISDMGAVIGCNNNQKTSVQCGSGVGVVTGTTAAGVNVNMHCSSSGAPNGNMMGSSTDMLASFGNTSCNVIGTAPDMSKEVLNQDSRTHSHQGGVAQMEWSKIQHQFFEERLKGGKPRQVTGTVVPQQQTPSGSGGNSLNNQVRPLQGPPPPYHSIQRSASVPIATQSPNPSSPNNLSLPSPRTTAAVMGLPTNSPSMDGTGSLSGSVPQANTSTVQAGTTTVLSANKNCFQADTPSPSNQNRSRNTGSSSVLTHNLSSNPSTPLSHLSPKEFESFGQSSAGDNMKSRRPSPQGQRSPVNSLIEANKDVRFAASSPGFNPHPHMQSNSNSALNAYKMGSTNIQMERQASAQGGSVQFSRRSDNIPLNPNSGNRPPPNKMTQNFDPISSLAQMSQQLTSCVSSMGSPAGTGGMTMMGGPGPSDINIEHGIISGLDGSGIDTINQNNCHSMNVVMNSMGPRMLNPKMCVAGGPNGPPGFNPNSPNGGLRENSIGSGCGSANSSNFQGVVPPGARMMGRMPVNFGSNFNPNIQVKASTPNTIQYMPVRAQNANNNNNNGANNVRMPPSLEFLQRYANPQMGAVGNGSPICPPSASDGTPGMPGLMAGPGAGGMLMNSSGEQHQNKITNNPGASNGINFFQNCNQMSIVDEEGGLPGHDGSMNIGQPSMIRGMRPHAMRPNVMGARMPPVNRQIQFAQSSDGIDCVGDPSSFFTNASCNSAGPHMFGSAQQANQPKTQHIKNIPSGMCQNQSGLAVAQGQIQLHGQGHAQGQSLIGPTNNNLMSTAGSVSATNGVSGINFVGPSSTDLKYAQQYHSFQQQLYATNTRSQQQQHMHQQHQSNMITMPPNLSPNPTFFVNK
B3: Armadillo segment polarity protein (Drosophila melanogaster (Fruit fly)), P18824 (parent)
chain: B1 chain
partner: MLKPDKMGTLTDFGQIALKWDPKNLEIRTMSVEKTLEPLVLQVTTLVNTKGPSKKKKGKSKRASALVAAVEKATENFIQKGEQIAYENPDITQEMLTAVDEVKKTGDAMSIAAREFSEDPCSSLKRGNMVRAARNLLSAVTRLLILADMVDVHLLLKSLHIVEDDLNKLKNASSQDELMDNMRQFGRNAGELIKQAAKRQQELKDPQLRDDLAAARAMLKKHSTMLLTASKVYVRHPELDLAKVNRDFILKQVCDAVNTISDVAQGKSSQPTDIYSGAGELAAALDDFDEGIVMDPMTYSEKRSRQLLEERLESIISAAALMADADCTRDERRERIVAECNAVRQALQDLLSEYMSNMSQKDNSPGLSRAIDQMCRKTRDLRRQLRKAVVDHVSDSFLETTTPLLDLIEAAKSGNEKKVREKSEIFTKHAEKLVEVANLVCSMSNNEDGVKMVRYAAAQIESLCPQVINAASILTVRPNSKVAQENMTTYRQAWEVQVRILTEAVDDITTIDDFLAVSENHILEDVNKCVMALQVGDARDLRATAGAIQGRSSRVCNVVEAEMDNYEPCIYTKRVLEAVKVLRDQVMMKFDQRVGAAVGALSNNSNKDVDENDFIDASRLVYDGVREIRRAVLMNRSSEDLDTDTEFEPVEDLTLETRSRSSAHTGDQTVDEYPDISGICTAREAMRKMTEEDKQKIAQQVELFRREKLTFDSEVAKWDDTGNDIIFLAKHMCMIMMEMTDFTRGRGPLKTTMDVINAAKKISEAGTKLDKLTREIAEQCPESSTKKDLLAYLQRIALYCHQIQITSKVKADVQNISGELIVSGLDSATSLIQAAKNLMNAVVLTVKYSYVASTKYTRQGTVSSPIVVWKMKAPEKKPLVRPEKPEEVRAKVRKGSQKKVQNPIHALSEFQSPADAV

Variants of: B1
Settings: with pang1_drome pan

Variant | effect of a mutation on the interaction
D172A | disrupting interaction

Variants of: B2
Settings: with bcl9_drome lgs

Variant | effect of a mutation on the interaction
D172A | disrupting interaction

Variants of: B3
Settings: with ctna_drome alpha-Cat

Variant | effect of a mutation on the interaction
Y150A | disrupting interaction

Reference: IntAct's records for PubMed 17113272
